We go through 11 molecules from patent US12281155 (INSTITUT PASTEUR, dated 2025).

B1: SPK002M A3 antibody (antibody, human IgG1, kappa, V domains shown)
VH: EVQLVESGGGLIQPGGSLRLSCAASTITVTSNYMSWVRQAPGKGLEWVSVIYPGGSTFYADSVKGRFTISADNSKNTLYLQMNSLRAEDTAVYYCARDLVVYGMDVWGQGTTVTVSS
VL: EIVLTQSPGTLSLSPGERATLSCRASQSVSSSYLAWYQQKPGQAPRLLIYGASSRATGIPGRFSGSGSGTDFTLTISRLEPEDFAVYYCQQGVTFGGGTKVEIKR
B2: SPK002M B2 antibody (antibody, human IgG1, kappa, V domains shown)
VH: B1 VH with T26I, A71Y
VL: B1 VL with V86I
B3: SPK002M C3 antibody (antibody, human IgG1, kappa, V domains shown)
VH: B1 VH with T26I, A71T
VL: B1 VL
B4: SPK002M A6 antibody (antibody, human IgG1, kappa, V domains shown)
VH: B1 VH with T26G
VL: B1 VL with V86I
B5: SPK002M A5 antibody (antibody, human IgG1, kappa, V domains shown)
VH: B1 VH with T26V
VL: B1 VL with V86I
B6: SPK002M B1 antibody (antibody, human IgG1, kappa, V domains shown)
VH: B1 VH with T26I, A71Y
VL: B1 VL with S31D, V86I, Q91Y
B7: SPK002M A4 antibody (antibody, human IgG1, kappa, V domains shown)
VH: B1 VH with T26V
VL: B1 VL
B8: SPK002M A1 antibody (antibody, human IgG1, kappa, V domains shown)
VH: B1 VH
VL: B1 VL with S28G, V29F
B9: SPK002M C1 antibody (antibody, human IgG1, kappa, V domains shown)
VH: B1 VH with T26I, I51A, A71T
VL: B1 VL with S31D, Q91Y
B10: SPK002M A2 antibody (antibody, human IgG1, kappa, V domains shown)
VH: B1 VH
VL: B1 VL with S28G
B11: SPK002M C2 antibody (antibody, human IgG1, kappa, V domains shown)
VH: B1 VH with T26I, I51A, A71T
VL: B1 VL

Residue numbers refer to the chain shown, from its start.

The target of one assay is T1, YU2 HIV-1 Env gp140 protein (HIV-1 YU2, UniProt P35961 32-670).
T1 construct: domain: gp140; also called gp140 (HIV-1 YU2); HIV gp140
Kind of assay: polyreactivity ELISA (FIG. 1).
B1: the binding result is on record as “no binding (tested: 4 µg/ml)”.

Regarding B2, the binding result is “no binding (tested: 4 µg/ml)”.

As for B3, the binding result was “no binding (tested: 4 µg/ml)”.

As for B4, the binding result is “no binding (tested: 4 µg/ml)”.

With B5, the binding result is listed as “no binding (tested: 4 µg/ml)”.

For the molecule B6, the binding result is “no binding (tested: 4 µg/ml)”.

Turning to B7, the binding result was “no binding (tested: 4 µg/ml)”.

For B8, the binding result is reported as “no binding (tested: 4 µg/ml)”.

As to B9, the binding result is given as “no binding (tested: 4 µg/ml)”.

As to B10, the binding result is “no binding (tested: 4 µg/ml)”.

Regarding B11, the binding result is on record as “no binding (tested: 4 µg/ml)”.

For a further assay, the target named is T2, recombinant SARS-CoV-2 Spike RBD domain, Wuhan (SARS-CoV-2).
T2 construct: also called RBD Wuhan
Kind of assay: competition ELISA, blocking of RBD binding to ACE2 ectodomain.
As for B1, the Blocking % is 94%.

As for B2, the Blocking % was found to be 90%.

For B3, the Blocking % stood at 88%.

Consider B5, for which the Blocking % was 89%.

As for B6, the Blocking % stood at 87%.

Regarding B7, the Blocking % worked out at 88%.

Consider B8, for which the Blocking % was 92%.

As for B9, the Blocking % turned out to be 94%.

Take B10: the Blocking % amounted to 92%.

For B11, the Blocking % is 88%.

In a further assay the target is T2, recombinant SARS-CoV-2 Spike RBD …. The assay can be described thus: ELISA on coated RBD.
B1: the “Binding AUC” value turned out to be 33.

As for B2, the “Binding AUC” value is 31.

Consider B3, for which the “Binding AUC” value is 34.

As for B5, the “Binding AUC” value is 34.

On to B6, for which the “Binding AUC” value is 31.

On to B7, for which the “Binding AUC” value was 34.

B8: the “Binding AUC” value came out at 33.

Consider B9, for which the “Binding AUC” value amounted to 32.

Regarding B10, the “Binding AUC” value came to 33.

With B11, the “Binding AUC” value stood at 32.
